{"source": "paper PMC6679980", "about": "(Biochimica et biophysica acta. General subjects, 2019)", "target": "GST-FL-UBQLN1 (full-length wild-type human UBQLN1 GST-fusion protein) (human, UniProt Q9UMX0 1-589)", "sequence (Q9UMX0 whole entry, the tested form may be a part)": "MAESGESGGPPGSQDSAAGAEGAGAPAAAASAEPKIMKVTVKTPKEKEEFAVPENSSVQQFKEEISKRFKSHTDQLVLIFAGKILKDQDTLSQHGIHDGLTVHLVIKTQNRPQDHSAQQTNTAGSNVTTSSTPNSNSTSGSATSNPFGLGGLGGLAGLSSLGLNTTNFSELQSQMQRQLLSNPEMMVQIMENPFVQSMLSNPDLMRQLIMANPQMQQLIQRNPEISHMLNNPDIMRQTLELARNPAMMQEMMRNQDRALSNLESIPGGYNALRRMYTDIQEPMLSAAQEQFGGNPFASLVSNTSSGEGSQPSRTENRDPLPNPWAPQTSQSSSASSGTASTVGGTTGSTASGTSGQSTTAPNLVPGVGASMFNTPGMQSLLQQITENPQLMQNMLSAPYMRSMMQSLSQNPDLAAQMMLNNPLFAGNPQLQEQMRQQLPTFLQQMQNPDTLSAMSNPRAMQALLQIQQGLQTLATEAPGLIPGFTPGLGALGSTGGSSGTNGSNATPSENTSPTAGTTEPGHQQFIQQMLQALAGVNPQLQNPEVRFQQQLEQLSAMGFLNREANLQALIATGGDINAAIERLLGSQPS", "experiment": "pull-down"}
{"binder": "Full-length human S5a proteasome subunit, His-tagged (natural protein, UniProt P55036 1-377, looked up) MVLESTMVCVDNSEYMRNGDFLPTRLQAQQDAVNIVCHSKTRSNPENNVGLITLANDCEVLTTLTPDTGRILSKLHTVQPKGKITFCTGIRVAHLALKHRQGKNHKMRIIAFVGSPVEDNEKDLVKLAKRLKKEKVNVDIINFGEEEVNTEKLTAFVNTLNGKDGTGSHLVTVPPGPSLADALISSPILAGEGGAMLGLGASDFEFGVDPSADPELALALRVSMEEQRQRQEEEARRAAAASAAEAGIATTGTEDSDDALLKMTISQQEFGRTGLPDLSSMTEEEQIAYAMQMSLQGAEFGQAESADIDASSAMDTSEPAKEEDDYDVMQDPEFLQSVLENLPGVDPNNEAIRNAMGSLASQATKDGKKDKKEEDKK", "values": [{"measurement": "binding result", "value": "binds"}]}
